Test results: patent US20250332277A1 (Eli Lilly, published 2025)

What was measured:
[1] = target: T1, human PTK-7 on cells (OV90-PTK-7, NCI-H446, OVCAR-3) (human, UniProt Q13308 31-1070); experiment: cell-based or functional assay
T1 sequence: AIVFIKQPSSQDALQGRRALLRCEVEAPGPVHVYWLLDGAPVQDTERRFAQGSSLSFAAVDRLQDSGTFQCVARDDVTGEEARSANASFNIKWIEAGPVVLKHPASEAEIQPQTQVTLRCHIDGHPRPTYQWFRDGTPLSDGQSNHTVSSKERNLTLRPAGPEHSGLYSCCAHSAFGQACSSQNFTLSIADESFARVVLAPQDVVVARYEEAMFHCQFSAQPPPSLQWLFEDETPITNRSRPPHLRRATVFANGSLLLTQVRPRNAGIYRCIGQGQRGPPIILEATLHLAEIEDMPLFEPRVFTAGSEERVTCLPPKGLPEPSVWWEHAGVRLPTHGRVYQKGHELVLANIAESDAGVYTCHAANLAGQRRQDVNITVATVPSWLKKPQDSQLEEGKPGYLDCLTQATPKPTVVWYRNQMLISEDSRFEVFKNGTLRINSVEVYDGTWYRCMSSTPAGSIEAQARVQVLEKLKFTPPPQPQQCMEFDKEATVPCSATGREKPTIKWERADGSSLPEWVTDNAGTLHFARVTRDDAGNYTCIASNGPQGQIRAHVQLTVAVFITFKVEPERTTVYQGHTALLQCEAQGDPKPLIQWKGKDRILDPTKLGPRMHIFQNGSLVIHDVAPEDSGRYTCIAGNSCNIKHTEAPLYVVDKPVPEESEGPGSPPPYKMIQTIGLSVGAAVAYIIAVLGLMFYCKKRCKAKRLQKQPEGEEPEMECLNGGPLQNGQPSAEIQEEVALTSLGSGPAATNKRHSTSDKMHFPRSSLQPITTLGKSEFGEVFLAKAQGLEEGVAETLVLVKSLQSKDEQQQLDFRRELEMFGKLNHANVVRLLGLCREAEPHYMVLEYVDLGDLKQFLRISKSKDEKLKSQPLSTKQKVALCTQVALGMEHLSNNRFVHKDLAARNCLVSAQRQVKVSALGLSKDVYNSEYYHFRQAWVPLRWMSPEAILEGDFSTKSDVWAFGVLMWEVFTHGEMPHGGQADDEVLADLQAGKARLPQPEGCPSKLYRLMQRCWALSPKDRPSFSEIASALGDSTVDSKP

[2] = target: T2, recombinant human PTK7 (Acro Biosystems Cat. No. PT7-H52H3) (human, UniProt Q13308 31-704); experiment: SPR, Biacore 8K+, ADC captured by anti-human Fc, human PTK7 as analyte, 37 C, 1:1 model
T2 construct: Bought recombinant protein; also called human PTK7 analyte
T2 sequence: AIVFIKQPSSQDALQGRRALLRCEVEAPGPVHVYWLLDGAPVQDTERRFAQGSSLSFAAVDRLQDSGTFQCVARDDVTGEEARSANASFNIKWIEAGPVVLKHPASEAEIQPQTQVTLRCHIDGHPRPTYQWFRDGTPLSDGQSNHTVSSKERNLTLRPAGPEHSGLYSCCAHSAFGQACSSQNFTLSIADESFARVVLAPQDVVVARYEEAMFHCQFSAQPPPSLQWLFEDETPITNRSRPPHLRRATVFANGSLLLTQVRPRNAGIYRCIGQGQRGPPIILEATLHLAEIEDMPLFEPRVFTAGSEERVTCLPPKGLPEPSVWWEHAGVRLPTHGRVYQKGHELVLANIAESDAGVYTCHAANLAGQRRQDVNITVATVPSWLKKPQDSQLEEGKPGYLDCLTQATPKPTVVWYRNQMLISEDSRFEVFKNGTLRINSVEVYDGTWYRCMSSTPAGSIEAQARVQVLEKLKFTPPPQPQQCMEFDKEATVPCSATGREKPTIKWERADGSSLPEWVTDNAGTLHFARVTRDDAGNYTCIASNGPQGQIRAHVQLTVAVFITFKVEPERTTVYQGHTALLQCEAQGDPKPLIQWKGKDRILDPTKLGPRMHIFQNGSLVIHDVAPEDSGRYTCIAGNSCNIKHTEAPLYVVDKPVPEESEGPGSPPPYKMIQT
Procedure: A Biacore 8K+ instrument (Cytiva, Marlborough, MA) was used to determine kinetics and affinity parameters for the binding interactions of ADCs binding to recombinant human PTK7 (Acro Biosystems Cat. No. PT7-H52H3, Newark, DE).
In each analysis cycle, a different ADC was captured on flow cell 2 of each channel by injecting a 5 μg/mL solution at 10 μL/min for 2 minutes. After capture, the same analyte was injected on flow cells 1 and 2 in all 8 channels for 2 minutes at 30 μL/min and dissociation was monitored for 10 minutes. After dissociation, all surfaces were regenerated with three consecutive 1-minute injections of 75 mM phosphoric acid at 10 μL/min. ADC capture and analyte cycles were repeated to obtain human PTK7 analyte binding of each ADC at analyte concentrations of 0, 2.47, 7.41, 22.2, 66.7, 200, and 600 nMs.
Sensorgram data were reference subtracted and blank subtracted, then globally fit with the default 1:1 binding model in Biacore Insight Evaluation Software v3.0.12.15655, as shown in Table 4.

B1: Ab4-PSAR10-VA-exatecan (other)
heavy: EVQLVESGGGLVKPGGSLRLSCAASGFTFSSYSMNWVRQAPGKGLEWVSSIDSSSSFIYYADSVKGRFTISRDNAKNSLYLQMNSLRAEDTAVYYCARGTGLFDFWGQGTLVTVSSASTKGPSVFPLAPSSKSTSGGTAALGCLVKDYFPEPVTVSWNSGALTSGVHTFPAVLQSSGLYSLSSVVTVPSSSLGTQTYICNVNHKPSNTKVDKRVEPKSCDKTHTCPPCPAPEAAGGPSVFLFPPKPKDTLMISRTPEVTCVVVSVSHEDPEVKFNWYVDGVEVHNAKTKPREEQYNSTYRVVSVLTVLHQDWLNGKEYKCKVSNKALPAPIEKTISKAKGQPREPQVYTLPPSREEMTKNQVSLTCLVKGFYPSDIAVEWESNGQPENNYKTTPPVLDSDGSFFLYSKLTVDKSRWQQGNVFSCSVMHEALHNHYTQKSLSLSPGK
light: EIVLTQSPGTLSLSPGERATLSCRASQSFSSSYLAWYQQKPGQAPRLLIYGASSRATGIPDRFSGSGSGTDFTLTISRLEPEDFAVYYCQQYGRTPWTFGQGTKVEIKRTVAAPSVFIFPPSDEQLKSGTASVVCLLNNFYPREAKVQWKVDNALQSGNSQESVTEQDSKDSTYSLSSTLTLSKADYEKHKVYACEVTHQGLSSPVTKSFNRGEC
modifications: PSAR10-VA-exatecan linker-payload (Formula XV) on cysteine thiols after full reduction of the antibody (DAR 8 procedure); positions not stated for this ADC
notes: Antibody-drug conjugate of Ab4; also called Ab4-VA-Exatecan
- Cytotoxicity IC50, OVCAR-3 cells (CellTiter-Glo, 7 days) [1]: 2.02 nM
- Kd [2]: 101 nM
- koff [2]: 0.0372 s⁻¹
- kon [2]: 368000 M⁻¹ s⁻¹
